# Experimental data published in the supplement of paper PMC11865577.
# Key:
# Test in all cases: pull-down binding Z-score (relative to library population); higher = stronger binding
# [1] = tested on: TO-3-N3 (biotin conjugate); settings: RNA library: Library-2
# In short: (§1)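 To score binding, a beads-only signal was subtracted, barcoded replicate probes were averaged with the highest and lowest dropped, and the value was converted to a Z-score using the library mean and standard deviation. The input was 1 μg of Cy5- or Cy3-end-labelled RNA library, heat-folded in phosphate/NaCl/KCl buffer and mixed for 60 min at 25 °C with streptavidin beads carrying 100 pmol of biotin-conjugated small molecule. Bound RNA was eluted in hot SDS and hybridised to a DNA barcode microarray at 55.5 °C for 20 h.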
# [2] = tested on: TO-3-N3-2 (biotin conjugate); settings: RNA library: Library-2
# In short: as §1
# [3] = tested on: G-clamp-N3 (biotin conjugate); settings: RNA library: Library-1 (pre-miRNA loops + repeats)
# In short: as §1
# [4] = tested on: TO-N3-2 (biotin conjugate); settings: RNA library: Library-2
# In short: as §1
# TO-N3 (biotin conjugate) = settings: RNA library: Library-2
# In short: as §1
Sequence,pull-down binding Z-score [1],pull-down binding Z-score [2],pull-down binding Z-score [3],pull-down binding Z-score [4],pull-down binding Z-score (TO-N3 (biotin conjugate))
CAGUGACAUGCGUUUAAC [hsa-mir-4485],0.345,0.112,-0.778,0.0479,0.394
CUGCAGUGAGCGAUCGGUGCUCUGGGG [hsa-mir-503],0.176,0.308,1.34,1.07,0.798
UGGCCUGGCAGUGCGUCGGAAGAACAGGGCGGGUGGGGCC [hsa-mir-4792],4,3.11,2.84,3.57,3.93
CCCGGAUACCUCAGAAAUUCGG [hsa-mir-760],-0.07,-0.461,-0.822,0.267,-0.0213
ACCUUCCAAGGCUCAGAAGGU [hsa-mir-4650-1_4650-2],-0.702,-0.432,-0.155,-0.0713,-0.702
CCCUGGUCAGACUCUCCGGGG [hsa-mir-4675],-0.139,-0.287,-0.63,-0.561,-0.368
AUCAUGUAUAAUUAAAAAUGAU [hsa-mir-509-2_509-3_509-1],-0.267,-0.0578,-0.568,-1,-0.599
UGAGCAUUUUUACUGAAUUGCCA [hsa-mir-6715a],-0.582,-0.268,0.49,-0.686,-0.738
AUGUUUAUUGUAAAGAUACUUU [hsa-mir-1305],-0.643,-0.418,-0.249,-0.121,-0.517
AGUGGCCAAUUCCU [hsa-mir-4251],-0.482,-0.313,-0.851,-0.274,-0.607
CAAGCACACAGGGCCUGGGACUAGCAUG [hsa-mir-4728],0.506,0.256,-0.152,1.52,0.993
GCAAGGCUGUAGUGUGCACAGCCUUGA [hsa-mir-4452],0.945,0.127,-0.383,0.583,0.936
GGGACACAUUUGAGCCAAAUGUCCC [hsa-mir-610],-0.35,-0.331,-0.286,-0.132,-0.525
CCGGGGCAGGAGACCCCGCG [hsa-mir-1470],-0.389,-0.34,-0.305,0.265,-0.351
UUGGCCUUUAUUUUCAAUGGCAAG [hsa-mir-548b],0.655,-0.117,-0.0843,0.0975,0.349
UUUGCUACUGAAAGUAAUGGCAAA [hsa-mir-548z],-0.614,-0.468,0.365,-0.632,-0.792
GCAAUCAGGACUGGGUCAUUC [hsa-mir-6873],0.38,0.166,-0.628,0.291,0.572
AGUGGACGAGUCUCAUUA [hsa-mir-3193],0.224,0.319,-0.476,0.613,0.678
CUGAGCGGCUCCAUCCCCCGGCCUGCUCAU [hsa-mir-6729],0.85,0.224,-1.11,1.81,1.14

Sequence,pull-down binding Z-score [1],pull-down binding Z-score [2],pull-down binding Z-score [3],pull-down binding Z-score [4],pull-down binding Z-score (TO-N3 (biotin conjugate))
ACCUGUGUGUGCCCAAGUGUUUCUAGCAAACACAGGG [hsa-mir-3649],0.76,0.425,0.215,0.193,0.757
CCGACUCGGGCUCUGGAGCAGUC [hsa-mir-152],0.836,0.274,0.748,0.692,1.09
UCCAGACGGAGAUGCGA [hsa-mir-611],-0.353,-0.000716,-1.18,0.858,0.192
GUUGCAUGUUGUCACGGCCUCAAUGCAAU [hsa-mir-32],-0.164,-0.202,-1.33,0.552,0.0815
GUGAGUGUCUCUUGUCGC [hsa-mir-1281],0.334,-0.252,1.22,0.25,0.328
GUGUGUGGCGUGGGUGCUGCGGGGCCGUCAGGGUGCCUGCGGGACGCUCAC [hsa-mir-6765],0.665,0.334,1.58,1.73,1.13
UGGAGCCAGGGGGCCCAGGUCUACAGCUUCUCCCCGCUCCC [hsa-mir-6752],-0.138,-0.105,-0.438,1.2,0.328
GGAGAUUGGAGUGGCCAGUGUUCCUAAACAAUUC [hsa-mir-4263],0.0793,0.226,-0.451,0.663,0.387
CUAAAUGGUACCCACUUUAUUUAG [hsa-mir-5687],-0.627,-0.0559,-0.726,-0.639,-0.76
CUGGAGUCGCCUGAGUCAUCACUCAG [hsa-mir-3065],-0.142,-0.276,-0.66,0.525,0.0597
UGCUUGACCUGAAUGCUACAAGGCA [hsa-mir-103b-2],-0.324,-0.122,-1.12,-0.0962,-0.303
GACGGCGCCCGCCCUGGCCCUGGC [hsa-mir-4745],0.678,0.0825,0.486,1.96,1.16
GGACUCAGCCCUGUGCUGAGCCC [hsa-mir-5587],0.722,-0.313,-0.0279,-0.961,0.532
AGUGGUGCAAUCUCAGUUCACU [hsa-mir-3135a],0.121,-0.238,-0.112,-0.196,-0.0142
UGUGUGUACUCACAGCCCCUCACACA [hsa-mir-942],-0.301,-0.262,-0.624,-0.11,-0.432
AGGGCAAGUCCAAAGGUAUACAGUUGGUCUGUUCA [hsa-mir-7107],-0.459,-0.208,1.04,0.381,-0.107
CACUGCAGUUACCCUCCCCUCGGCGUUACUGAGCACUG [hsa-mir-637],0.22,0.224,-0.893,0.948,0.603
UGUCUUGUGUCUGUAAGUAU [hsa-mir-1275],-0.619,-0.189,-0.561,-0.00915,-0.413
GGAGGCACUGCCAGGGCUGCCCAC [hsa-mir-1202],0.521,0.277,-0.43,2.09,1.21

Sequence,pull-down binding Z-score [1],pull-down binding Z-score [2],pull-down binding Z-score [3],pull-down binding Z-score [4],pull-down binding Z-score (TO-N3 (biotin conjugate))
UGUAUGUGUAAAUACAUAUCCACACA [hsa-mir-4789],0.0268,-0.00888,-1.45,-0.589,-0.285
GUUUCUAAAAAAAUAAAAAGUUAAAAAAAUUUAUGUUAACGUGUAAUGUGUUUACUAAUUUUUUUUUUUUUUUUUGGAGAC [hsa-mir-3908],-0.27,0.349,-1.28,-0.771,-0.136
CGUGCGCCAGUGGAG [hsa-mir-6089-2_6089-1],0.0799,-0.139,-0.0599,0.982,0.573
UUUGCCAGAGCUACAAAGGCAAA [hsa-mir-561],-0.527,-0.521,0.627,-0.512,-0.845
UGGAAGCUCCAGGUGCCAACCACCUGCCUCUA [hsa-mir-6731],0.00854,-0.134,-0.826,0.456,0.231
CUGUAUGUCCUAACAGUGCUUGUAG [hsa-mir-4794],-0.28,-0.0698,-0.4,0.46,0.0771
AGCUUCUACGUCAUUCAGCACUUGCU [hsa-mir-5706],-0.62,-0.211,-0.819,-0.31,-0.601
UGCAGUGCUGGGCAUGGGCUUCUCG [hsa-mir-3677],1.07,0.328,0.689,1.54,1.49
GAGACACCCGCUACCUGGUGUU [hsa-mir-4321],-0.271,-0.213,-0.619,0.471,-0.0464
AGGCUGUCUUCAUUCCCUCUUGACCACCC [hsa-mir-6795],1.19,0.213,-1.03,0.709,1.29
AGGGUGGAGCCCACUGUGGCUCCUGACUCAGCCCU [hsa-mir-6893],-0.0543,0.0411,-0.967,0.419,-0.0778
AGCACUUUCUGUUGUCUGAAAGAAAAGAAAGUGCU [hsa-mir-516a-1_516a-2],0.399,0.0524,1.47,-0.0183,0.686
GCUUUUCACCUGUGAUCCCAGGAGAGGAAGC [hsa-mir-646],-0.299,-0.0622,-0.741,0.422,-0.0302
UCCACACUGACAAGGGCCGUGGGG [hsa-mir-3191],1.19,0.217,-0.843,0.967,1.19
AGUCUGUCUCAUACCCAACCAGAUU [hsa-mir-205],0.258,0.167,-1.11,-0.233,0.14
UUCUUGUACGAGUCUGCGGCCAACCGAGAA [hsa-mir-219a-2],-0.402,-0.366,-0.0874,0.974,0.347
UCCAGGGCUCCUGACACCUGGA [hsa-mir-6861],-0.649,-0.533,-0.943,-0.248,-0.785
CUUGUGGUGAAGUGGACCGCACAAG [hsa-mir-99a],-0.203,0.00618,1.24,1,-0.0222
GGAAGGGAGCCCCAUUUACAGUGGUAACUUCCUUUCC [hsa-mir-5006],1.35,0.679,-0.388,0.181,1.3
